B1: LINE1-full (parent)
chain: UACGUAGGUGGUUUUCCCCUGAUAGUGCUAAGGGGGCCUGGAAGUUUGGACUGGGCAGAGCUCAACACAGCGUGGCAAAGUGGCUGUGGCUAGACUGCCUCUCUGGAUUCCUCGUCACUCAGCAGGGCAUCUCUGAGAGAAAUGCC

This data set covers variants of B1. As to the kind of experiment: self-cleavage, relative activity (ratio to wild type); higher = more cleavage; in vitro, sequencing; the parent is a self-cleaving ribozyme.
On to U46A U102C, for which the self-cleavage was 1.28.

Regarding U46C G114A, the self-cleavage amounted to 1.22. With U46C G114U the figure was 1.12; with U47A A50G, 1.2. As to U46A C51U, the self-cleavage was 1.35. In the case of U45C U134A it was 1.6; in that of U45C U134C, 1.47; in that of U45C U134G, 1.22. In the case of U45C U62A it was 0.04; in that of U45C U62G, 0. In the case of U45C G74A it was 1.25; in that of U45C G54U, 0.11.

Take U46C A121C: the self-cleavage stood at 1.9.

Turning to U46C A121G, the self-cleavage is 1.64. Take U45C U52A: the self-cleavage was found to be 1.33. With U46C U81A the figure was 2.18; with U46C U81G, 0.54. With U47A G88U the figure was 0.03; with U47A U87A, 0.11. With U46A U115C the figure was 1.72; with U46A U115A, 1.26.

As for U46A U100C, the self-cleavage turned out to be 1.75. With U47A A79U the figure was 1.64. As to U47A A79G, the self-cleavage stood at 1.05.

U45C G144U: the self-cleavage worked out at 1.42. Consider U46C U109A, for which the self-cleavage came out at 1.41. With U46C A138U the figure was 1.65; with U46G A136G, 1.96. Turning to U46G A136U, the self-cleavage is 1.34. Regarding U45C G114A, the self-cleavage turned out to be 1.48. As for U46G U102C, the self-cleavage turned out to be 1.19. Take U45G U47C: the self-cleavage is 1.92. With U46A U87A the figure was 0.03; with U46A G125A, 2; with U45G G83A, 0.54.

For the variant U46C G106A, the self-cleavage is 1.22. In the case of U46C G106U it was 0.84; in that of U45C U119C, 2.12; in that of U45C U119A, 1.3.

For U45C U115G, the self-cleavage turned out to be 2.1. With U45C U115C, the self-cleavage is 2.14. With U45G U96A the figure was 0.03. As to U46C A67C, the self-cleavage was 0.05. In the case of U47A A142G it was 1.4; in that of U47C A79U, 1.76; in that of U46C U96A, 0.08.

With U46C U96C, the self-cleavage was 0.3. With U47C A78G the figure was 1.64; with U47A U119C, 1.53. Turning to U46C A136G, the self-cleavage amounted to 1.21.

In the case of U46C U85A, the self-cleavage came out at 0.14.

Take U47A U134C: the self-cleavage was 1.39. With U46C G144A the figure was 2.24; with U45C U96C, 0.12; with U45C G88A, 0.08. As to U46C G122A, the self-cleavage came out at 1.6. On to U45C U130A, for which the self-cleavage was 1.66. As to U45C U130C, the self-cleavage worked out at 1.39. In the case of U45C U130G, the self-cleavage came out at 1.9. With U45G A78G the figure was 1.13; with U45C U91C, 0.69. As for U45C U91A, the self-cleavage is 0.55. With U45C U91G the figure was 0; with U47A A77U, 1.46. In the case of U47A A77C it was 1.6; in that of U45G C113U, 0.88. With U47C A67U the figure was 0.2; with U47C A67G, 0.88. Turning to U45C A140G, the self-cleavage came out at 1.41. With U45C A140C the figure was 2.27; with U47A C113U, 1.17.

Turning to U46A A65G, the self-cleavage is 0.02. With U46G U73C, the self-cleavage was 1.02. For the variant U46A G114C, the self-cleavage was 1.56.

Take U45C C63A: the self-cleavage came out at 0.11. In the case of U45C C63U it was 0.18; in that of U46C A124U, 1.25. As for U46C A124G, the self-cleavage was 1.54. In the case of U47A A57C it was 0.06; in that of U47A A57U, 0.08; in that of U47A A140U, 1.25. For U45C A141G, the self-cleavage came to 1.37. With U46G A107G the figure was 1.15; with U47A A78G, 0.29; with U47A A78U, 2.04. For the variant U45C G125C, the self-cleavage came out at 1.13.

As to U47A A69U, the self-cleavage was 0.04.

As for U46C C113U, the self-cleavage came out at 1.53. With U45G A92U the figure was 0.61; with U46C G97A, 0.23; with U45C U132G, 1.33. With U47A C146U the figure was 1.68; with U45C U85C, 0.17. For U47C A65U, the self-cleavage came out at 0.1. As to U46A G54A, the self-cleavage came to 0.37. In the case of U46G G89A it was 0.04; in that of U45C G122A, 0.81. In the case of U46G U96C it was 0.74. In the case of U46C A77G, the self-cleavage came to 2.46. In the case of U46C A77U it was 1.51. As to U45C G93A, the self-cleavage is 0.07.

With U46C G80A, the self-cleavage amounted to 2.95. Regarding U46A U52A, the self-cleavage is 1.87.

As for U46C G74A, the self-cleavage is 0.52. With U45G U85G, the self-cleavage worked out at 0.28. Take U45C C95U: the self-cleavage was 0.2. In the case of U45C G139C it was 1.63. In the case of U47C A77C it was 0.34. With U47A U143C the figure was 1.39; with U47A U91C, 0.63. On to U47A A94U, for which the self-cleavage came to 0.18.

Consider U46A A117U, for which the self-cleavage is 1.46. With U46A A117G the figure was 1.78.

For U46G C103A, the self-cleavage worked out at 1.25.

For U47C A124G, the self-cleavage came to 1.59. In the case of U47C A124U, the self-cleavage came to 1.68. U47C A124C: the self-cleavage was determined as 1.31.

With U46C A65G, the self-cleavage was 0.06. In the case of U46C A65U it was 0.24; in that of U46A U62A, 0.04; in that of U46C U73C, 2.17. In the case of U46C U73A, the self-cleavage came to 1.68. In the case of U45G A64G it was 0.24.

For the variant U46C U100A, the self-cleavage was 1.22. With U47A A67G the figure was 0.38. Turning to U46C G93U, the self-cleavage was found to be 0.06. With U46C G139A the figure was 1.23; with U47C A50U, 1.5. In the case of U45C U81A it was 2.03; in that of U46G U143C, 1.43; in that of U45G A50G, 0.89. In the case of U45C C145U it was 1.5; in that of U45C C66A, 0.19. On to U45C A94G, for which the self-cleavage came to 0.3. For U45C A94C, the self-cleavage was 0.04. As to U46G G60C, the self-cleavage was 0. In the case of U46A U85A it was 0.06; in that of U46A U85C, 0.08. In the case of U47A C123U it was 0.7. For U47A C110U, the self-cleavage was found to be 0.95.

As for U45C A142G, the self-cleavage came out at 1.26. For U46C A92G, the self-cleavage is 0.29. Regarding U47A C90U, the self-cleavage came out at 0.03.

In the case of U46A G58A, the self-cleavage came to 0.04.

Turning to U47A A59G, the self-cleavage is 0.05. In the case of U47A A64U it was 0.44; in that of U47A A64C, 0.25. With U46A the figure was 1.17; with U46C, 1.41. In the case of U46G it was 1.25. U45C A92G: the self-cleavage is 0.08. Consider U46A U96A, for which the self-cleavage stood at 0.05. With U45C C76A the figure was 1.22; with U46C A57U, 0.17; with U46C U143C, 1.52.

As for U46C U143G, the self-cleavage was 1.41.

As for U46C U143A, the self-cleavage stood at 1.44. With U46C A117G the figure was 1.78; with U46C A117U, 1.78; with U46C C133U, 1.13. U45G A57G: the self-cleavage came to 0.9. With U45C C146A the figure was 1.56.

Turning to U45C C146U, the self-cleavage turned out to be 2.99. In the case of U47A A136U it was 1.48; in that of U47C A57G, 1.54; in that of U46C A78G, 1.62.

As for U46C A78C, the self-cleavage was found to be 1.9.

For the origin of these results see the RNAGym collection of RNA variant scans (doi:10.7554/elife.90254).
